This note sets out measurements from patent publication US20120277164A1 (IMPERIAL INNOVATIONS, published 2012).

Experiment [1] concerns the target T1, Gadd45β/MKK7 complex (biotin-hGadd45β with coated GST-MKK7, ELISA format) (human) (UniProt O75293).
T1 sequence (biotinylated (sites not stated), looked up) 1: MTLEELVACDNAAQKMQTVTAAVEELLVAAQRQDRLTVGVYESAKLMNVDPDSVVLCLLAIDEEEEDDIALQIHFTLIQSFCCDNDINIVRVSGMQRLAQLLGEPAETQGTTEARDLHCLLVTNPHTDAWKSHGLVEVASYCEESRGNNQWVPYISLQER
T1 sequence (biotinylated (sites not stated), looked up) 2: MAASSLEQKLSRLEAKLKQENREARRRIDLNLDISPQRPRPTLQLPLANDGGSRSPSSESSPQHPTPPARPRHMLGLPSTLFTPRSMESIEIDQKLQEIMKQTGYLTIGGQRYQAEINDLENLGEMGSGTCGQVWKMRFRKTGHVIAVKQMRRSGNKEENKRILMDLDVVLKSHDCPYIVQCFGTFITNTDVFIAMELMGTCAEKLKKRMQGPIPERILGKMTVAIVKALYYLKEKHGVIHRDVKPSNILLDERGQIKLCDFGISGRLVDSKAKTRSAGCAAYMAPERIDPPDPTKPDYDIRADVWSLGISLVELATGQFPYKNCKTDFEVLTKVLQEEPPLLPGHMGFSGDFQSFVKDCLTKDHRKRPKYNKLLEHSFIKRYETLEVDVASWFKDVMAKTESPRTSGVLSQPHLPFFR
Put plainly: competition ELISA; coated GST-MKK7 42 nM, biotin-hGadd45β 21 nM.

Experiment [2] addresses T2, Gadd45β/MKK7 complex (biotin-hGadd45β with coated GST-MKK7, ELISA format) (human, UniProt O75293 1-160; O14733 1-419, biotinylated (sites not given)).
T2 construct: not shown: glutathione S-transferase (GST) fusion partner
T2 sequence (looked up) 1: T1 sequence (biotinylated (sites not stated), looked up) 1
T2 sequence (looked up) 2: T1 sequence (biotinylated (sites not stated), looked up) 2
The experiment is described as follows: competition ELISA; coated GST-MKK7, biotin-hGadd45β; single dose.

In experiment [3] the target is T2, Gadd45β/MKK7 complex (biotin-hGadd45β …). Described as above. This is another data set of the same source.

Where two headings read alike, the source gives them in different places. Square brackets hold non-standard residues; d marks the D form. Ends that are not written are not given here. * marks the point of attachment. Fmoc = O=C(OCC1c2ccccc2-c2ccccc21)*; Cha = N[C@@H](CC1CCCCC1)C(=O)O; ClZ = O=C(OCc1ccccc1Cl)*; Cbz = O=C(OCc1ccccc1)*; Bz = O=C(c1ccccc1)*; Myr = myristyl

As to Ac-Tyr-Arg-[Cha], the half-maximal inhibitory concentration (IC50) (usually the concentration that gives 50% inhibition) in experiment [1] is over 5 nM.

As for Ac-Tyr-Asn-Phe-NH2 (peptide), the half-inhibitory concentration (IC50) in experiment [1] is 1.9 nM.

For the molecule Ac-Tyr-Leu-Phe-NH2 (peptide), in experiment [1], the IC50 came out at 1.8 nM.

Consider Ac-YPF-NH2 (peptide), for which the concentration for half-maximal inhibition (IC50) in experiment [1] stood at 0.645 nM.

In turn, Ac-[Cha]-Arg-Phe-NH2 returned an IC50 in experiment [1] of over 5 nM.

In experiment [1], Ac-YRY-NH2 (peptide) displayed a half-maximal inhibitory concentration (IC50) of 0.758 nM.

In experiment [1], Cbz-Tyr-Arg-Phe-NH2 displayed a 50% inhibitory concentration (IC50) of 0.1 nM.

In turn, H-YHF-NH2 (peptide) showed an IC50 in experiment [1] of 0.645 nM.

In experiment [1], Ac-YHF-NH2 (peptide) displayed a concentration for half-maximal inhibition (IC50) of 0.69 nM.

Molecule AC-Tyr-Met-Phe-NH2 (peptide) had a concentration for half-maximal inhibition (IC50) in experiment [1] of over 10 nM.

In experiment [1], Z-Tyr-Glu-Phe-NH2 (mDTP2) (peptide) yielded an IC50 of 0.158 nM.

In experiment [1], Ac-Tyr-Gln-Phe-NH2 (peptide) returned a 50% inhibitory concentration (IC50) of over 10 nM.

On to H-YRY-NH2 (peptide), for which the IC50 in experiment [1] was found to be 0.75 nM.

Molecule Cbz-Tyr-Asp-Phe-NH2 had a half-inhibitory concentration (IC50) in experiment [1] of 0.162 nM.

In experiment [1], Ac-[dY][dY][dR][dF]-NH2 (also: D/L configuration not given here) [Ac-Tyr-Tyr-Arg-Phe-NH2] returned a half-inhibitory concentration (IC50) of over 5 nM.

As to Bz-YDHF-NH2 [Benzoic acid-YDHF-NH2], the “% Inhibition of Gadd45β-MKK7 binding” value in experiment [2] was determined as 0%.

In experiment [1], Ac-[dY][dM][dR][dF]-NH2 (also: D/L configuration not given here) [Ac-Tyr-Met-Arg-Phe-NH2] came in with a 50% inhibitory concentration (IC50) of over 10 nM.

For Fmoc-YDHF-NH2 [Fmoc-YDHF-NH2], the “% Inhibition of Gadd45β-MKK7 binding” value in experiment [2] is 58%.

Take Cbz-[dY][dD][dH][dQ]-NH2 [Z-Tyr-Asp-His-Gln-NH2]: the IC50 in experiment [1] is over 10 nM.

Turning to ClZ-YDHQ-NH2 [2CI-Z-YDHQ-NH2], the “% Inhibition of Gadd45β-MKK7 binding” value in experiment [2] was 40%.

With Ac-WEHW-NH2 [Ac-WEHW-NH2], the “% Inhibition of Gadd45β-MKK7 binding” value in experiment [3] was found to be 75%.

Consider Ac-YDHW-NH2 [Ac-YDHW-NH2], for which the “% Inhibition of Gadd45β-MKK7 binding” value in experiment [3] stood at 58%.

Take Ac-WERW-NH2 [Ac-WERW-NH2]: the “% Inhibition of Gadd45β-MKK7 binding” value in experiment [3] came out at 69%.

Take Ac-WDRW-NH2 [Ac-WDRW-NH2]: the “% Inhibition of Gadd45β-MKK7 binding” value in experiment [3] was 93%.

As to Ac-YEAF-NH2 [Ac-YEAF-NH2], the “% Inhibition of Gadd45β-MKK7 binding” value in experiment [2] was found to be 13%.

With Fmoc-YERF-NH2 [Fmoc-YERF-NH2], in experiment [2], the “% Inhibition of Gadd45β-MKK7 binding” value worked out at 60%.

With Ac-WEHF-NH2 [Ac-WEHF-NH2], the “% Inhibition of Gadd45β-MKK7 binding” value in experiment [3] was 36%.

For Myr-YDHQ-NH2 [Myr-YDHQ-NH2], in experiment [2], the “% Inhibition of Gadd45β-MKK7 binding” value came out at 28%.

With Ac-WDRF-NH2 [Ac-WDRF-NH2], the “% Inhibition of Gadd45β-MKK7 binding” value in experiment [3] was 46%.

As to Ac-WDKW-NH2 [Ac-WDKW-NH2], in experiment [3], the “% Inhibition of Gadd45β-MKK7 binding” value came to 69%.

For the molecule Ac-YERA-NH2 [Ac-YERA-NH2], the “% Inhibition of Gadd45β-MKK7 binding” value in experiment [2] worked out at 28%.

For Ac-WEKW-NH2 [Ac-WEKW-NH2], in experiment [3], the “% Inhibition of Gadd45β-MKK7 binding” value is 65%.

Ac-YARF-NH2 [Ac-YARF-NH2]: the “% Inhibition of Gadd45β-MKK7 binding” value in experiment [2] came to 17%.

As to Ac-WERF-NH2 [Ac-WERF-NH2], in experiment [3], the “% Inhibition of Gadd45β-MKK7 binding” value was 29%.

For the molecule Ac-YPRF-NH2 [Ac-YPRF-NH2], the “% Inhibition of Gadd45β-MKK7 binding” value in experiment [2] was found to be 13%.

With ClZ-YERF-NH2 [2CI-Z-YERF-NH2], in experiment [2], the “% Inhibition of Gadd45β-MKK7 binding” value was determined as 38%.

As for {3‑OH‑4MeO‑benzoic acid}-YERF-NH2 [3-OH-4MeO-Benzoid acid-YERF-NH2], the “% Inhibition of Gadd45β-MKK7 binding” value in experiment [2] is 86%.

Take Ac-WEKF-NH2 [Ac-WEKF-NH2]: in experiment [3], the “% Inhibition of Gadd45β-MKK7 binding” value turned out to be 65%.

Regarding Ac-YDKF-NH2 [Ac-YDKF-NH2], in experiment [3], the “% Inhibition of Gadd45β-MKK7 binding” value came out at 35%.

For the molecule Ac-YDRW-NH2 [Ac-YDRW-NH2], the “% Inhibition of Gadd45β-MKK7 binding” value in experiment [3] was found to be 43%.

Turning to Ac-PERF-NH2 [Ac-PERF-NH2], in experiment [2], the “% Inhibition of Gadd45β-MKK7 binding” value came to 24%.

As for Ac-WDHF-NH2 [Ac-WDHF-NH2], in experiment [3], the “% Inhibition of Gadd45β-MKK7 binding” value is 28%.

For Cbz-YERF-NH2 (also called Z-LTP2) [Z-YERF-NH2], the “% Inhibition of Gadd45β-MKK7 binding” value in experiment [2] is 78%.

Consider Cbz-YDHQ-NH2 [Z-YDHQ-NH2], for which the “% Inhibition of Gadd45β-MKK7 binding” value in experiment [2] worked out at 13%.

On to Bz-YERF-NH2 [Benzoic acid-YERF-NH2], for which, in experiment [2], the “% Inhibition of Gadd45β-MKK7 binding” value came to 24%.

Regarding Ac-YEPF-NH2 [Ac-YEPF-NH2], in experiment [2], the “% Inhibition of Gadd45β-MKK7 binding” value was 13%.

Take Ac-WDHW-NH2 [Ac-WDHW-NH2]: in experiment [3], the “% Inhibition of Gadd45β-MKK7 binding” value worked out at 50%.

For the molecule Ac-WDKF-NH2 [Ac-WDKF-NH2], in experiment [3], the “% Inhibition of Gadd45β-MKK7 binding” value worked out at 26%.

Turning to Ac-YERP-NH2 [Ac-YERP-NH2], in experiment [2], the “% Inhibition of Gadd45β-MKK7 binding” value was 0%.

In the case of Myr-YERF-NH2 [Myr-YERF-NH2], the “% Inhibition of Gadd45β-MKK7 binding” value in experiment [2] turned out to be 37%.

Turning to Ac-YDKW-NH2 [Ac-YDKW-NH2], the “% Inhibition of Gadd45β-MKK7 binding” value in experiment [3] stood at 23%.

For the molecule {3‑hydroxy‑4‑methoxybenzoyl}-YDHF-NH2 [3-OH-4MeO-Benzoid acid-YDHF-NH2], the “% Inhibition of Gadd45β-MKK7 binding” value in experiment [2] was determined as 81%.

On to Myr-YDHF-NH2 [Myr-YDHF-NH2], for which the “% Inhibition of Gadd45β-MKK7 binding” value in experiment [2] was 26%.

As for Cbz-YDHF-NH2 (also called Z-LTP1) [Z-YDHF-NH2], the “% Inhibition of Gadd45β-MKK7 binding” value in experiment [2] amounted to 84%.

In the case of Cbz-[dY][dY][dE][dR][dF]-NH2 [Z-Tyr-Tyr-Glu-Arg-Phe-NH2], in experiment [1], the half-maximal inhibitory concentration (IC50) was over 5 nM.

With Cbz-YD(OMe)HF-NH2 [Z-YD(OMe)HF-NH2], in experiment [2], the “% Inhibition of Gadd45β-MKK7 binding” value was 84%.

As to Ac-[dY][dL][dR][dF]-NH2 (also: D/L configuration not given here) [Ac-Tyr-Leu-Arg-Phe-NH2], in experiment [1], the IC50 was found to be 5 nM.

Turning to Ac-[dY][dN][dR][dF]-NH2 (also: D/L configuration not given here) [Ac-Tyr-Asn-Arg-Phe-NH2], in experiment [1], the IC50 is 10 nM.

Ac-[dY][dQ][dR][dF]-NH2 (also: D/L configuration not given here) [Ac-Tyr-Gln-Arg-Phe-NH2]: in experiment [1], the concentration for half-maximal inhibition (IC50) worked out at 5 nM.

On to ClZ-YDHF-NH2 [2CI-Z-YDHF-NH2], for which the “% Inhibition of Gadd45β-MKK7 binding” value in experiment [2] came to 38%.

The molecule Cbz-[dY][dY][dD][dH][dQ]-NH2 [Z-Tyr-Tyr-Asp-His Gln-NH2] had a half-inhibitory concentration (IC50) in experiment [1] of over 10 nM.
